Laboratory results published in publication PMC5939987.

Key:
Experiment in all cases: SEC
[1] = target: recombinant motavizumab dimeric IgA1 (UniProt P01591)
[2] = target: recombinant palivizumab dimeric IgA1 (UniProt P01591)
[3] = target: recombinant palivizumab dimeric IgA2 (UniProt P01591)
[4] = target: recombinant motavizumab dimeric IgA2 (UniProt P01591)

Measured: sIgA formation

secretory component (domain or fragment)
100%: [1] | [2] | [3] | [4]
